Biological target: human CD205 (human, UniProt O60449 28-1722)
Experiment: cell-based or functional assay

Sequence of human CD205 (O60449 28-1722 limits assumed): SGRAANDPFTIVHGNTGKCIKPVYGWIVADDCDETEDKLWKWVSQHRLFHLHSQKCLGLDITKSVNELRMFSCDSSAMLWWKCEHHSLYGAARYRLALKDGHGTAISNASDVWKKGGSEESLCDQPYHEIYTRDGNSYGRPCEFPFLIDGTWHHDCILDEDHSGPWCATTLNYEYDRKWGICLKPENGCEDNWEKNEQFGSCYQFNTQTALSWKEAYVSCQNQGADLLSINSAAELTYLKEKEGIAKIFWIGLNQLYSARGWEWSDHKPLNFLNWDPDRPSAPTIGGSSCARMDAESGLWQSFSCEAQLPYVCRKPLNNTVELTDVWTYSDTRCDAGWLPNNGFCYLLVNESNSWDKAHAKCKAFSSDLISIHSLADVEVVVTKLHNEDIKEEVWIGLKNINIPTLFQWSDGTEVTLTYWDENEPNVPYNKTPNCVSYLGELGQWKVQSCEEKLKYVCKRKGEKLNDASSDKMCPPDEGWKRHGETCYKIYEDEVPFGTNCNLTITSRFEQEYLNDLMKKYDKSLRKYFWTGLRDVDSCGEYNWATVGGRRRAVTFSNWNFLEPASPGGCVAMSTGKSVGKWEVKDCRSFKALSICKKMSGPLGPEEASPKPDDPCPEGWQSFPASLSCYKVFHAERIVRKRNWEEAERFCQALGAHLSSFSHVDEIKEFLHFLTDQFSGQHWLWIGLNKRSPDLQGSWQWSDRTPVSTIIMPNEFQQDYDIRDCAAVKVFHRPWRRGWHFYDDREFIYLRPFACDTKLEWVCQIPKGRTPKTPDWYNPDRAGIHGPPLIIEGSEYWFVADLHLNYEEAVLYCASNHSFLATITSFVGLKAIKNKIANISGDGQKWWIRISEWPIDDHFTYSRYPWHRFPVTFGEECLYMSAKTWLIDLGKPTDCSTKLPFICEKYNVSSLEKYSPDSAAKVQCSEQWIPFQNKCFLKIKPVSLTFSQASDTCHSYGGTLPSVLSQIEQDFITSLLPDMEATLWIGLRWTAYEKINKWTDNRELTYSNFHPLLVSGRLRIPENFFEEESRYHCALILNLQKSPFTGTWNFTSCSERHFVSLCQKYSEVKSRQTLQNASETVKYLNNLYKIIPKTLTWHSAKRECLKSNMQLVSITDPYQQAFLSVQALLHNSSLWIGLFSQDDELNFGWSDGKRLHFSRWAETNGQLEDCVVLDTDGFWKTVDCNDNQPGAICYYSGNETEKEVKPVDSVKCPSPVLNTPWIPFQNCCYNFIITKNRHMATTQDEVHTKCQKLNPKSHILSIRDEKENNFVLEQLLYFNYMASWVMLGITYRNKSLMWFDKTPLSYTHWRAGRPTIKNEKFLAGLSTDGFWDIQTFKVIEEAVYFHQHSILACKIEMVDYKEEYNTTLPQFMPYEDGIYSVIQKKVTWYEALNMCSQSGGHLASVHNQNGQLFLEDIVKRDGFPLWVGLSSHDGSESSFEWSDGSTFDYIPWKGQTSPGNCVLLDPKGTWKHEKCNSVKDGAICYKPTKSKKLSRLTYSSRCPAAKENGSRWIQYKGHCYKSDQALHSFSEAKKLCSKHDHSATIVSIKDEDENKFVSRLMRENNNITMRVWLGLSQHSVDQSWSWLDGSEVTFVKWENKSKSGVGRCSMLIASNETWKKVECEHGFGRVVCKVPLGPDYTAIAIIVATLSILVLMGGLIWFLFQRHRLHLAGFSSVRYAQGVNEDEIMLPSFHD

B1: DM4-conjugated anti-LY75 monoclonal antibody 16A5 (CD205_A1) (antibody, V domains shown)
VH: EVQLVESGGGLVKPGGSLRLSCAASGFTYSNAWMSWVRQAPGKGLEWVGRIKSKTDGGTTDYAAPVQGRFTISRDDSKNTLYLQMNSLKTEDTAVYYCTIFGVVSFDYWGQGTLVTVSS
VL: DVQMTQSPSSLSASVGDRVTITCRASQSISDYLSWYQQRPGKAPNLLIYAASNLKTGVPSRFSGSGSGTDFTLTISTLQPEDFATYYCQQSYRSPWTFGQGTKVEIKR
modifications: antibody conjugated to the maytansinoid DM4; attachment residues not stated
- EC50 (pM) of % Specific Death, Cell-Titer Glo, Raji cells, 96 hours: 728 pM
- EC50 (pM) of % Specific Death, Cell-Titer Glo, THP1 cells, 96 hours: 37.5 pM

B2: DM4-conjugated anti-LY75 monoclonal antibody 8A3 (antibody, V domains shown)
VH: EVQLVESGGGLIQPGGSLRLSCAASGFTVSSNYMSWVRQAPGKGLEWVSVIYSGGSTYYTDSVKGRFTISRDNSKNTLYLQMNSLRAEDTAVYYCARDKSGWNGFDYWGQGTLVTVSS
VL: DVQMTQSPSSLSASVGDRVTITCRASQSVSTYLHWYQQKPGKAPKLLIYAASSLQGGLPSRFSGSGSGTDFTLTISSLQPEDFATYYCQQSSSTPLTFGGGTKVEITR
modifications: antibody conjugated to the maytansinoid DM4; attachment residues not stated
- EC50 (pM) of % Specific Death, Cell-Titer Glo, Raji cells, 96 hours: 1010 pM
- EC50 (pM) of % Specific Death, Cell-Titer Glo, THP1 cells, 96 hours: 98.8 pM
